Assay [1] addresses T1, Bombyx mori ABC transporter subfamily C member 1, BmABCC1-FLAG (Bombyx mori).
T1 construct: BmABCC1 (MRP1) of Bombyx mori, protein XP_012546136.1, cDNA XM_012690682.3 amplified from midgut cDNA; also called MRP1 (name in the NCBI)
Nature of the assay: SPR; BIACORE; BmABCC immobilised on a CM5 sensor chip; toxins (or BSA) in PBST (PBS with 0.005% Tween 20) at 500 and/or 1000 nM; 120 s association, 240 s dissociation; fitted with two-state reaction models (BIAevaluation ver.4.1). Conditions: both partners purified. In general terms: SPR reads the build-up and loss of mass on a sensor chip optically.

In assay [2] the target is T2, Bombyx mori ABC transporter subfamily C member 4, BmABCC4-FLAG (Bombyx mori).
T2 construct: BmABCC4 (MRP4) of Bombyx mori, protein XP_021205339.2, cDNA XM_021349664.2 amplified from midgut cDNA; also called MRP4 (name in the NCBI)
T2 sequence (main, as listed by the source): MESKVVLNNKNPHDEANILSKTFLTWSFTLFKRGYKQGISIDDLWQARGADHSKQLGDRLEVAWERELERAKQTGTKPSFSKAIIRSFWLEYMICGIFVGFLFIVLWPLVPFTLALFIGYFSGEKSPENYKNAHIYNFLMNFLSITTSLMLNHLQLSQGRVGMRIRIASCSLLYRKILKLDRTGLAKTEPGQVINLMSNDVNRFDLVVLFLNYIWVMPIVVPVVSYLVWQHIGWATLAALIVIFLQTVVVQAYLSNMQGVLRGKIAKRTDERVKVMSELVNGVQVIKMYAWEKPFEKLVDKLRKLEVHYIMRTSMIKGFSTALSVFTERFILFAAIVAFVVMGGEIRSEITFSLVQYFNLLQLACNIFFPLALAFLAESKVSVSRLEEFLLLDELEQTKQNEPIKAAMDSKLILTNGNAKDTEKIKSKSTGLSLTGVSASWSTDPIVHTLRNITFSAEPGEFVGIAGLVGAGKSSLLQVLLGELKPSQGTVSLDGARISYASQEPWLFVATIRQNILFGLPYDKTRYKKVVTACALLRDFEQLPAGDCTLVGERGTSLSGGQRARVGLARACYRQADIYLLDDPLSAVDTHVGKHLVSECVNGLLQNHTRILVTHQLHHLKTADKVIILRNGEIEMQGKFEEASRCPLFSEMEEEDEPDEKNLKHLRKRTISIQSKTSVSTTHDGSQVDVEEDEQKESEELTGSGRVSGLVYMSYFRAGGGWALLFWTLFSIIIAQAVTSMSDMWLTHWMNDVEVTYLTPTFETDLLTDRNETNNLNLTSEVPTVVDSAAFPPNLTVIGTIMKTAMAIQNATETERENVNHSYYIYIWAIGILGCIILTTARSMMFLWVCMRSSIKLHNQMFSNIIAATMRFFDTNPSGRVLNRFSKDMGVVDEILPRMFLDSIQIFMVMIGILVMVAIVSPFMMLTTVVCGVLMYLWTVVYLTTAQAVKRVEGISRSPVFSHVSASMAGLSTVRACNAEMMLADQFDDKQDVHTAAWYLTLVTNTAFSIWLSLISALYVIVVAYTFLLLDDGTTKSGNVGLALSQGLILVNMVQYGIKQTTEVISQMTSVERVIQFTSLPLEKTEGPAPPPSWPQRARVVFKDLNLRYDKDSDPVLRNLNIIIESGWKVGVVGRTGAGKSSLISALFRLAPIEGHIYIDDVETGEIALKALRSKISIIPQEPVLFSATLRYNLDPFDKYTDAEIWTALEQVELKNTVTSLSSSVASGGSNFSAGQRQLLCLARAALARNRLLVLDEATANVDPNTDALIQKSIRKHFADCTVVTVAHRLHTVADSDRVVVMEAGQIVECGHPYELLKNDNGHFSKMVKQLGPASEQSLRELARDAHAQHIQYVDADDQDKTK
The assay is described as above. Conditions: both partners purified.

T1 sequence (main, as listed by the source): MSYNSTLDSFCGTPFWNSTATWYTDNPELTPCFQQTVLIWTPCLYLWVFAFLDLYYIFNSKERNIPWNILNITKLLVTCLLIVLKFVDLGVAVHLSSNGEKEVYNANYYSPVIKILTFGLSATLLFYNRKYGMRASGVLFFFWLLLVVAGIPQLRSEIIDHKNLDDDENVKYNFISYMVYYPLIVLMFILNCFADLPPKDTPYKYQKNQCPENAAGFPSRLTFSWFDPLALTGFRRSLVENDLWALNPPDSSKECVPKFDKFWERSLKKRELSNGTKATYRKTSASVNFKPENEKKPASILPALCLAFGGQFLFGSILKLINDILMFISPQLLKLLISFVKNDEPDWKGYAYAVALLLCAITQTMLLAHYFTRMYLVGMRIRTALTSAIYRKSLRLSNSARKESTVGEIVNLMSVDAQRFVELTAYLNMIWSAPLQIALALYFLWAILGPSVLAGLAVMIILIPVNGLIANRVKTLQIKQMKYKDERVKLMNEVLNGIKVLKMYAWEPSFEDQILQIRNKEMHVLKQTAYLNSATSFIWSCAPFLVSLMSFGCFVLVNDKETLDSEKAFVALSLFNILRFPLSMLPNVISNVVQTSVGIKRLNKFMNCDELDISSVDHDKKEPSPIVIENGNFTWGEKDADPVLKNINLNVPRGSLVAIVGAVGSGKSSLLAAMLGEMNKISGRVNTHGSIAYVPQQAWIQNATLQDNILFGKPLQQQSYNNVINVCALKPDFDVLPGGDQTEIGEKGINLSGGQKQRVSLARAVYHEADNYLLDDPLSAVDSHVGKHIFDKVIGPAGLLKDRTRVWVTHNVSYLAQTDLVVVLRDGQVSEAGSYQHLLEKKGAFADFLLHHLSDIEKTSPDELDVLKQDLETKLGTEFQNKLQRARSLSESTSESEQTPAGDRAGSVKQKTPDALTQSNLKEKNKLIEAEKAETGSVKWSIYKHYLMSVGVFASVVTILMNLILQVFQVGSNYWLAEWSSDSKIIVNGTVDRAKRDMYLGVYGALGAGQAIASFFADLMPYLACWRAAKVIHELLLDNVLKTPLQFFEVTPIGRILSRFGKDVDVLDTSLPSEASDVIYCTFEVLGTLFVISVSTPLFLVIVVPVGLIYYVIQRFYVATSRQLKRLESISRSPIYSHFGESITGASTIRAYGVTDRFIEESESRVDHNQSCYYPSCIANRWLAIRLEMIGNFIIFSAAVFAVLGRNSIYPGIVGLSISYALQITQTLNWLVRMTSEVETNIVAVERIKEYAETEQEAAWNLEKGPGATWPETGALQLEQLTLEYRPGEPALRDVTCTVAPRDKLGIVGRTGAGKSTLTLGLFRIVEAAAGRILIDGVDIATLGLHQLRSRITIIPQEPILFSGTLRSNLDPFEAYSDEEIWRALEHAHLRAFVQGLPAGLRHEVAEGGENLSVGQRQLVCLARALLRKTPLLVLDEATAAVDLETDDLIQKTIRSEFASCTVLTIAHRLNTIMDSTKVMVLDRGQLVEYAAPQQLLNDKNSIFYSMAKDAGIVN

B1: Cry1Aa toxin (trypsin-activated) (domain or fragment)
chain: not shown
B1: the results for the Kd in assay [1] and in assay [2] were 46100 nM and 267 nM, respectively.

B2: Cry1Da toxin (trypsin-activated) (domain or fragment)
chain: ETGNTVADISLGLINFLYSNFVPGGGFIVGLLELIWGFIGPSQWDIFLAQIEQLISQRIEEFARNQAISRLEGLSNLYKVYVRAFSDWEKDPTNPALREEMRIQFNDMNSALITAIPLFRVQNYEVALLSVYVQAANLHLSILRDVSVFGERWGYDTATINNRYSDLTSLIHVYTNHCVDTYNQGLRRLEGRFLSDWIVYNRFRRQLTISVLDIVAFFPNYDIRTYPIQTATQLTREVYLDLPFINENLSPAASYPTFSAAESAIIRSPHLVDFLNSFTIYTDSLARYAYWGGHLVNSFRTGTTTNLIRSPLYGREGNTERPVTITASPSVPIFRTLSYITGLDNSNPVAGIEGVEFQNTISRSIYRKSGPIDSFSELPPQDASVSPAIGYSHRLCHATFLERISGPRIAGTVFSWTHRSASPTNEVSPSRITQIPWVKAHTLASGASVIKGPGFTGGDILTRNSMGELGTLRVTFTGRLPQSYYIRFRYASVANRSGTFRYSQPPSYGISFPKTMDAGEPLTSRSFAHTTLFTPITFSRAQEEFDLYIQSGVYIDRIEFIPVTAT
Regarding B2, the dissociation constant (Kd) came out at 415 nM in assay [1] and 63.7 nM in assay [2].

B3: Cry9Aa toxin (trypsin-activated) (domain or fragment)
chain: YPLANNPYSSALNLNSCQNSSILNWINIIGDAAKEAVSIGTTIVSLITAPSLTGLISIVYDLIGKVLGGSSGQSISDLSICDLLSIIDLRVSQSVLNDGIADFNGSVLLYRNYLEALDSWNKNPNSASAEELRTRFRIADSEFDRILTRGSLTNGGSLARQNAQILLLPSFASAAFFHLLLLRDATRYGTNWGLYNATPFINYQSKLVELIELYTDYCVHWYNRGFNELRQRGTSATAWLEFHRYRREMTLMVLDIVASFSSLDITNYPIETDFQLSRVIYTDPIGFVHRSSLRGESWFSFVNRANFSDLENAIPNPRPSWFLNNMIISTGSLTLPVSPSTDRARVWYGSRDRISPANSQFITELISGQHTTATQTILGRNIFRVDSQACNLNDTTYGVNRAVFYHDASEGSQRSVYEGYIRTTGIDNPRVQNINTYLPGENSDIPTPEDYTHILSTTINLTGGLRQVASNRRSSLVMYGWTHKSLARNNTINPDRITQIPLTKVDTRGTGVSYVNDPGFIGGALLQRTDHGSLGVLRVQFPLHLRQQYRIRVRYASTTNIRLSVNGSFGTISQNLPSTMRLGEDLRYGSFAIREFNTSIRPTASPDQIRLTIEPSFIRQEVYVDRIEFIPVNPT
In the case of B3, the dissociation constant Kd in assay [1] is 1.89 nM.

B4: Cry8Ca toxin (trypsin-activated) (domain or fragment)
chain: ISAQDAVGTGIDIVSTIISGLGIPVLGEVFSILGSLIGLLWPSNNENVWQIFMNRVEELIDQKILDSVRSRAIADLANSRIAVEYYQNALEDWRKNPHSTRSAALVKERFGNAEAILRTNMGSFSQTNYETPLLPTYAQAASLHLLVMRDVQIYGKEWGYPQNDIDLFYKEQVSYTARYSDHCVQWYNAGLNKLRGTGAKQWVDYNRFRREMNVMVLDLVALFPNYDARIYPLETNAELTREIFTDPVGSYVTGQSSTLISWYDMIPAALPSFSTLENLLRKPDFFTLLQEIRMYTSFRQNGTIEYYNYWGGQRLTLSYIYGSSFNKYSGVLAGAEDIIPVGQNDIYRVVWTYIGRYTNSLLGVNPVTFYFSNNTQKTYSKPKQFAGGIKTIDSGEELTYENYQSYSHRVSYITSFEIKSTGGTVLGVVPIFGWTHSSASRNNFIYATKISQIPINKASRTSGGAVWNFQEGLYNGGPVMKLSGSGSQVINLRVATDAKGASQRYRIRIRYASDRAGKFTISSRSPENPATYSASIAYTNTMSTNASLTYSTFAYAESGPINLGISGSSRTFDISITKEAGAANLYIDRIEF
B4: the Kd in assay [1] amounted to 34.8 nM; in assay [2], 61.7 nM.

In general, Kd refers to the concentration at which binding is half-saturated. Read a low Kd as a tighter complex.

(Values after PMC10968512, “Cry Toxins Use Multiple ATP-Binding Cassette Transporter Subfamily C Members as Low-Efficiency Receptors in Bombyx mori” (Biomolecules, 2024).)
